Experimental data published in US20100015126A1, “Methods of Binding of Cross-Beta Structures By Chaperones” (priority 2006, published 2010).

What was measured:
[1] = biological target: T1, BiP-Sepharose (Homo sapiens, UniProt P11021); experiment: Experiment 2: BiP-Sepharose extraction from six synovial fluid samples of RA patients and mass spectrometry; format: binding; settings: BiP-Sepharose eluate, synovial fluid of RA patient
T1 construct: The human BiP gene except the signal peptide encoding region was obtained from Geneart (Germany); linker […]; made in house; host or cells: HEK 293E cells, transient transfection, PABC674 vector; secreted into the medium
T1 sequence (P11021 19-654): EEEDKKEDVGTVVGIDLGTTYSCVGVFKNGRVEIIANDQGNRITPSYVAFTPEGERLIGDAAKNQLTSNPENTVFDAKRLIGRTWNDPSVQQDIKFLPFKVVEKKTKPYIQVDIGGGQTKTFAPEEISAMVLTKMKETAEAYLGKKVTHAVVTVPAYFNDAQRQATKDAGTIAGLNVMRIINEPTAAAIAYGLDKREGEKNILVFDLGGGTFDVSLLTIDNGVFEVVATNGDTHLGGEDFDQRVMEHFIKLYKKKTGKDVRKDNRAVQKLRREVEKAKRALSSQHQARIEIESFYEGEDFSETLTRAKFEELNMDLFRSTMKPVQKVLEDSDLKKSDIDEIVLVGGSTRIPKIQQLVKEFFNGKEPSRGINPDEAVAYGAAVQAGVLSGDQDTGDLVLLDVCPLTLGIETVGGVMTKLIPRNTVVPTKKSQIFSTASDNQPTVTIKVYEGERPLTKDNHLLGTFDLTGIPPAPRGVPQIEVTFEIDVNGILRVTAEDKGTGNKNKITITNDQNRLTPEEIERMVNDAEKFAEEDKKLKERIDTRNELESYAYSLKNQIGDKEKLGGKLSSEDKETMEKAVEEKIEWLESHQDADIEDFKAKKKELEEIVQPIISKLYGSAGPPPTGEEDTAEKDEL
Description: (§1) Six samples were incubated with the BiP-Sepharose, IgIV-Sepharose and the control-Sepharose: Normal pooled plasma, plasma of a patient I or of a patient II, with AL amyloidosis, serum of a patient III with RA (Rheumatoid Factor (RF) titer 682), control serum and synovial fluid of a patient IV with RA (RF titer 23). All samples were diluted 20× in HBS and applied to 200 μl beads in two volumes of 500 μl. One volume was incubated for 4 h at RT and supernatant was discarded after centrifugation (2 minutes at 1400 rpm). Subsequently, the second volume was applied to the same matrix and incubated overnight on a roller device at 4° C. […] To collect the eluates, the matrices were centrifuged and the two eluates were pooled for each sample.
(§2) Protein digests were desalted as described (Rappsilber et al., 2003), vacuum dried and dissolved in 2.5% formic acid.
(§3) For analysis of peptide mixtures, an Agilent 1100 HPLC system (Agilent Technologies) connected to a Thermo Finnigan LTQ-MS (Thermo Electron, Bremen, Germany) was used. Protein digests were injected on a trap column (Reprosil C18 RP (Dr Maisch, Germany), 20 mm×100 μm I.D.) at 5 μl/minute. Subsequently, the peptides were transferred with a split-reduced flow rate of 100 nL/minute solvent A (0.1 M acetic acid) on the analytical column (Reprosil C18 RP, 20 cm×50 μm I.D.). […] The column effluent was directly introduced into the ESI source of the mass spectrometer via a butt-connected nano-ESI emitter (New Objectives, Woburn, Mass.). The mass spectrometer was operated in the positive ion mode and parent ions were selected for fragmentation in data-dependent mode.
(§4) After mass spectrometric measurements, peak lists were generated using BioWorks software (Thermo Electron, Bremen, Germany). Protein identification was performed using Mascot software (www.matrixscience.com) by searching the IPIhuman database (version 3.24, downloaded from ftp://ftp.ebi.ac.uk/pub/databases/IPI/current) using the following settings: fully tryptic peptides, peptide tolerance 0.8 Da, MS/MS tolerance 0.9 Da, 1 missed cleavage allowed, carbamidomethyl (Cys) and oxidation (Met) as fixed and variable modification, respectively. The Scaffold software package (www.proteomesoftware.com) was used to parse the data and to filter peptides at a confidence level of 95%, allowing only protein identification with at least 2 peptides identified.
Those samples are listed below: • 1. […] One difference when compared to the protocol described above is that now with the twelve samples, elution buffer comprised 1 M NaCl. Again, a misfolded protein or a protein binding to misfolded protein is identified uniquely in the synovial fluid when no or a relatively very low number of fragments are detected in eluates of control-Sepharose.

[2] = biological target: T1, BiP-Sepharose; experiment: BiP-Sepharose extraction of proteins from patient plasma, serum, synovial fluid and mass-spectrometric identification; format: binding; settings: compared to AL amyloidosis patient II
Description: BiP was coated on CNBr-Sepharose (GE-Healthcare, Amersham Biosciences). Immobilization of BiP was performed essentially as described elsewhere in this application for NHS-Sepharose. CNBr-matrix was dissolved at 200 mg/ml in 1 mM HCl and treated the same as the NHS-matrix, except for an additional 5 minutes activation step in 1 mM HCl on a roller device before washing in this buffer. BiP was diluted in immobilization buffer (50 mM NaCl and 40 mM NaHCO3) to a concentration of 820 μg/ml. A total volume of 2 ml BiP solution (1640 μg BiP) was incubated with 360 mg beads. Negative control matrix was exposed to immobilization buffer, only. After overnight immobilization matrix was blocked with Tris and washed.
as §1, §2, §3, §4

B1: Histidine-rich glycoprotein precursor (protein)
chain: VSPTDCSAVEPEAEKALDLINKRRRDGYLFQLLRIADAHLDRVENTTVYYLVLDVQESDCSVLSRKYWNDCEPPDSRRPSEIVIGQCKVIATRHSHESQDLRVIDFNCTTSSVSSALANTKDSPVLIDFFEDTERYRKQANKALEKYKEENDDFASFRVDRIERVARVRGGEGTGYFVDFSVRNCPRHHFPRHPNVFGFCRADLFYDVEALDLESPKNLVINCEVFDPQEHENINGVPPHLGHPFHWGGHERSSTTKPPFKPHGSRDHHHPHKPHEHGPPPPPDERDHSHGPPLPQGPPPLLPMSCSSCQHATFGTNGAQRHSHNNNSSDLHPHKHHSHEQHPHGHHPHAHHPHEHDTHRQHPHGHHPHGHHPHGHHPHGHHPHGHHPHCHDFQDYGPCDPPPHNQGHCCHGHGPPPGHLRRRGPGKGPRPFHCRQIGSVYRLPPLRKGEVLPLPEANFPSFPLPHHKHPLKPDNQPFPQSVSESCPGKFKSGFPQVSMFFTHTFPK
[1]; Sample 1B
  # of unique peptides: 2
[1]; Sample 2B
  # of unique peptides: 1
[1]; Sample 5B
  # of unique peptides: 1

B2: IGHM protein, immunoglobulin heavy constant gamma 2 (protein)
chain: ASTKGPSVFPLAPCSRSTSESTAALGCLVKDYFPEPVTVSWNSGALTSGVHTFPAVLQSSGLYSLSSVVTVPSSNFGTQTYTCNVDHKPSNTKVDKTVERKCCVECPPCPAPPVAGPSVFLFPPKPKDTLMISRTPEVTCVVVDVSHEDPEVQFNWYVDGVEVHNAKTKPREEQFNSTFRVVSVLTVVHQDWLNGKEYKCKVSNKGLPAPIEKTISKTKGQPREPQVYTLPPSREEMTKNQVSLTCLVKGFYPSDISVEWESNGQPENNYKTTPPMLDSDGSFFLYSKLTVDKSRWQQGNVFSCSVMHEALHNHYTQKSLSLSPGK
[1]; Sample 1B
  # of unique peptides: 1
[1]; Sample 2B
  # of unique peptides: 1

B3: CDNA FLJ14473 fis, clone MAMMA1001080, highly similar to Homo sapiens SNC73 protein (SNC73) mRNA, immunoglobulin heavy constant alpha 1 (protein, UniProt P01876 1-398, looked up)
Immunoglobulin heavy constant …: ASPTSPKVFPLSLCSTQPDGNVVIACLVQGFFPQEPLSVTWSESGQGVTARNFPPSQDASGDLYTTSSQLTLPATQCLAGKSVTCHVKHYTNPSQDVTVPCPVPSTPPTPSPSTPPTPSPSCCHPRLSLHRPALEDLLLGSEANLTCTLTGLRDASGVTFTWTPSSGKSAVQGPPERDLCGCYSVSSVLPGCAEPWNHGKTFTCTAAYPESKTPLTATLSKSGNTFRPEVHLLPPPSEELALNELVTLTCLARGFSPKDVLVRWLQGSQELPREKYLTWASRQEPSQGTTTFAVTSILRVAAEDWKKGDTFSCMVGHEALPLAFTQKTIDRLADWQMPPPYVVLDLPQETLEEETPGANLWPTTITFLTLFLLSLFYSTALTVTSVRGPSGNREGPQY
[1]; Sample 1B
  # of unique peptides: 2
[1]; Sample 3B
  # of unique peptides: 1
[1]; Sample 5B
  # of unique peptides: 1

B4: Apolipoprotein A-IV precursor (protein)
chain: EVSADQVATVMWDYFSQLSNNAKEAVEHLQKSELTQQLNALFQDKLGEVNTYAGDLQKKLVPFATELHERLAKDSEKLKEEIGKELEELRARLLPHANEVSQKIGDNLRELQQRLEPYADQLRTQVSTQAEQLRRQLTPYAQRMERVLRENADSLQASLRPHADELKAKIDQNVEELKGRLTPYADEFKVKIDQTVEELRRSLAPYAQDTQEKLNHQLEGLTFQMKKNAEELKARISASAEELRQRLAPLAEDVRGNLRGNTEGLQKSLAELGGHLDQQVEEFRRRVEPYGENFNKALVQQMEQLRQKLGPHAGDVEGHLSFLEKDLRDKVNSFFSTFKEKESQDKTLSLPELEQQQEQQQEQQQEQVQMLAPLES
[1]; Sample 1B
  # of unique peptides: 3

B5: complement C4a (protein, UniProt P0C0L4 680-756, looked up)
C4a anaphylatoxin: NVNFQKAINEKLGQYASPTAKRCCQDGVTRLPMMRSCEQRAARVQQPDCREPFLSCCQFAESLRKKSRDKGQAGLQR
modifications: C4a anaphylatoxin
[2]
  Specific binding to BiP-Sepharose from normal pooled plasma: specifically bound

B6: IGHM protein, immunoglobulin heavy chain mu (heavy chain disease protein) (protein)
chain: GSASAPTLFPLVSCENSPSDTSSVAVGCLAQDFLPDSITFSWKYKNNSDISSTRGFPSVLRGGKYAATSQVLLPSKDVMQGTDEHVVCKVQHPNGNKEKNVPLPVIAELPPKVSVFVPPRDGFFGNPRKSKLICQATGFSPRQIQVSWLREGKQVGSGVTTDQVQAEAKESGPTTYKVTSTLTIKESDWLGQSMFTCRVDHRGLTFQQNASSMCVPDQDTAIRVFAIPPSFASIFLTKSTKLTCLVTDLTTYDSVTISWTRQNGEAVKTHTNISESHPNATFSAVGEASICEDDWNSGERFTCTVTHTDLPSPLKQTISRPKGVALHRPDVYLLPPAREQLNLRESATITCLVTGFSPADVFVQWMQRGQPLSPEKYVTSAPMPEPQAPGRYFAHSILTVSEEEWNTGETYTCVVAHEALPNRVTERTVDKSTGKPTLYNVSLVMSDTAGTCY
[1]; Sample 1B
  # of unique peptides: 3
[1]; Sample 3B
  # of unique peptides: 1

B7: FLJ00385 protein (Fragment), immunoglobulin heavy constant mu (protein)
chain: GSASAPTLFPLVSCENSPSDTSSVAVGCLAQDFLPDSITFSWKYKNNSDISSTRGFPSVLRGGKYAATSQVLLPSKDVMQGTDEHVVCKVQHPNGNKEKNVPLPVIAELPPKVSVFVPPRDGFFGNPRKSKLICQATGFSPRQIQVSWLREGKQVGSGVTTDQVQAEAKESGPTTYKVTSTLTIKESDWLGQSMFTCRVDHRGLTFQQNASSMCVPDQDTAIRVFAIPPSFASIFLTKSTKLTCLVTDLTTYDSVTISWTRQNGEAVKTHTNISESHPNATFSAVGEASICEDDWNSGERFTCTVTHTDLPSPLKQTISRPKGVALHRPDVYLLPPAREQLNLRESATITCLVTGFSPADVFVQWMQRGQPLSPEKYVTSAPMPEPQAPGRYFAHSILTVSEEEWNTGETYTCVVAHEALPNRVTERTVDKSTGKPTLYNVSLVMSDTAGTCY
[1]; Sample 1B
  # of unique peptides: 1
[1]; Sample 2B
  # of unique peptides: 1
[1]; Sample 3B
  # of unique peptides: 2

B8: Galectin-3-binding protein precursor (protein)
chain: VNDGDMRLADGGATNQGRVEIFYRGQWGTVCDNLWDLTDASVVCRALGFENATQALGRAAFGQGSGPIMLDEVQCTGTEASLADCKSLGWLKSNCRHERDAGVVCTNETRSTHTLDLSRELSEALGQIFDSQRGCDLSISVNVQGEDALGFCGHTVILTANLEAQALWKEPGSNVTMSVDAECVPMVRDLLRYFYSRRIDITLSSVKCFHKLASAYGARQLQGYCASLFAILLPQDPSFQMPLDLYAYAVATGDALLEKLCLQFLAWNFEALTQAEAWPSVPTDLLQLLLPRSDLAVPSELALLKAVDTWSWGERASHEEVEGLVEKIRFPMMLPEELFELQFNLSLYWSHEALFQKKTLQALEFHTVPFQLLARYKGLNLTEDTYKPRIYTSPTWSAFVTDSSWSARKSQLVYQSRRGPLVKYSSDYFQAPSDYRYYPYQSFQTPQHPSFLFQDKRVSWSLVYLPTIQSCWNYGFSCSSDELPVLGLTKSGGSDRTIAYENKALMLCEGLFVADVTDFEGWKAAIPSALDTNSSKSTSSFPCPAGHFNGFRTVIRPFYLTNSSGVD
[1]; Sample 1B
  # of unique peptides: 1
[1]; Sample 3B
  # of unique peptides: 1
